# Reference: patent US8703907B2, “Controlled drug release from dendrimers” (Prolynx LLC, priority 2010, dated 2014)
# Assays:
# [1] = in vivo; cited from earlier work
# plasma proteases = details: cited from earlier work
# GLP1 receptor = target: T1, GLP1 receptor (Rattus norvegicus, UniProt P32301); assay: GLP1 receptor agonism in membrane or cell-based assays after β-eliminative release; details: native exendin released by mild base
# T1 construct: in membrane or cell-based assays (e.g., RIN-m5f cells, ATCC); host or cells: RIN-m5f cells
# T1 sequence (P32301 22-463): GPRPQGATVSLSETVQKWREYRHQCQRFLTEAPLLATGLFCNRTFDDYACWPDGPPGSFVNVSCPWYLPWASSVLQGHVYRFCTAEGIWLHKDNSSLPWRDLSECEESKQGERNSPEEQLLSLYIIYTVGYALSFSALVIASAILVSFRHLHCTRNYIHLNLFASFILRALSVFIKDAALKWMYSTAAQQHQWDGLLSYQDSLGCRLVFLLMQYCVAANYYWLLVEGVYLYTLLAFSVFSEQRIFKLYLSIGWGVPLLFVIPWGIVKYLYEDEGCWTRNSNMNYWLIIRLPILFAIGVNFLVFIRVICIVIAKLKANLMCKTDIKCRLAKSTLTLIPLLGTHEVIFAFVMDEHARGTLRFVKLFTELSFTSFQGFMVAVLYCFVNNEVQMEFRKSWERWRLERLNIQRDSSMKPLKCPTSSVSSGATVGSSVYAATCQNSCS
# Protocol: The PEG and PEG-dendrimer conjugates are tested as agonists of the GLP1 receptor in membrane or cell-based assays (e.g., RIN-m5f cells, ATCC as described (Young, A., et al., (2000) WO00/66629) pages 74-75) before and after β-eliminative release of native exendin.
# [2] = hydrolysis of carbamate in 50% human serum; type: in vitro ADME; details: 1 week at 37° C.
# Excerpt: The half-lives for cleavage span 2 hr to >10 days. […] In general, compared to C—H, a) electron withdrawing groups at R^1 increase the rate; b) alkyl groups at R^3 increase the rate; and c) aryl moieties at R^3 decrease the rate.
# [3] = β-eliminative cleavage of DNP-Lys carbamates (HPLC); type: physicochemical; details: after 5 days at 37° C. and pH 7.4
# Protocol: A series of model linker scaffolds having a range of functional groups as potential pKa modulators (substituted aromatics, ketones, nitriles, sulfones) were designed, prepared and linked via carbamate bonds to Ne-2,4-dinitrophenyl-L-lysine (Ne-DNP-Lys) for evaluation of release rates; DNP-Lys is water soluble and is a strong chromophore to permit HPLC-UV analysis. Rates of release at pH 7.4 and/or 8.3 were determined.
# The DNP carbamates were prepared as follows. A suspension of N-DNP-L-Lys HCl (35 mg, 0.1 mmol) in 600 μL of water was treated successively with 1.0 N NaOH (200 μL) and 1.0 M NaHCO3. A 0.1 M solution of the N—HS carbonate in acetonitrile (1.0 mL) was added to the stirred mixture to give a clear yellow solution. After 1 hr, the mixture was diluted with 10 mL water and loaded onto a Bond-Elut™ C18 extraction column (1 gm). The column was washed successively with water, 1% CF3CO2H/water, water, and 50% MeOH/water. The product was eluted with MeOH, then evaporated to give the product as a yellow glass. Kinetic analyses were performed by HPLC (C18; linear MeOH/water+0.5% HOAc gradient) using a UV/vis monitor. The areas under the DNP and starting material peaks were integrated to determine extent of reaction.
# The half-lives for cleavage span 2 hr to >10 days. […]
molecule,measurement,setting,value
"Exendin-4: 39-amino acid peptide from the Gila monster, agonist of the GLP-1 receptor",half-life,[1],2.5 h
same,t1/2 against plasma proteases in vitro,plasma proteases,~10 h
same,activity as GLP1 agonists,GLP1 receptor,full activity
"O=C(N[C@@H](CCCCNc1ccc([N+](=O)[O-])cc1[N+](=O)[O-])C(=O)O)OCc1ccccc1 [O-benzyl-N—(Ne-2,4-DNP-Lys) carbamate]",hydrolysis in 50% human serum,[2],no detectable hydrolysis
same,cleavage,[3],less than 0.25%
GLP-1: glucagon-like peptide 1,plasma lifetime,[1],~5 min
